Data reported in PMC8882101.

Key:
[1] = target: fully trypsin activated Cry1Ia toxin (Bacillus thuringiensis (strain IE-1)); experiment: SEC; Superdex-200 10/300 GL, carbonate buffer (50 mM Na2CO3, 100 mM NaCl) pH 10.5; oligomeric state from the molecular weight of the eluted peaks against standards
[2] = target: partially processed Cry1Ia protoxin (~67 kDa intermediate fragment) (Bacillus thuringiensis (strain IE-1)); experiment: SDS-PAGE of samples heated at 50 °C, Western blot; 5 µg Cry1Ia protein incubated with 2 µg O. nubilalis BBMV in 50 µl carbonate buffer pH 10.5 at 37 °C (5-30 min); BBMV pellet heated at 50 °C for 3 min, 10% SDS-PAGE, polyclonal anti-Cry1Ia
[3] = target: Cry1Ia38 protoxin (Bacillus thuringiensis (strain IE-1)); experiment: SEC; Superdex-200 10/300 GL, carbonate buffer (50 mM Na2CO3, 100 mM NaCl) pH 10.5; oligomeric state from the molecular weight of the eluted peaks against standards
[4] = target: Cry1Ia38 protoxin (Bacillus thuringiensis (strain IE-1)); experiment: SDS-PAGE of samples heated at 50 °C, Western blot; control without BBMV: Cry1Ia protein incubated in carbonate buffer pH 10.5 at 37 °C, sample heated at 50 °C for 3 min, 10% SDS-PAGE, polyclonal anti-Cry1Ia
[5] = target: Cry1Ia38 protoxin (Bacillus thuringiensis (strain IE-1)); experiment: SDS-PAGE of samples heated at 50 °C, Western blot; 5 µg Cry1Ia protein incubated with 2 µg O. nubilalis BBMV in 50 µl carbonate buffer pH 10.5 at 37 °C (5-30 min); BBMV pellet heated at 50 °C for 3 min, 10% SDS-PAGE, polyclonal anti-Cry1Ia
[6] = target: fully MJ activated Cry1Ia toxin (Bacillus thuringiensis (strain IE-1)); experiment: SEC; Superdex-200 10/300 GL, carbonate buffer (50 mM Na2CO3, 100 mM NaCl) pH 10.5; oligomeric state from the molecular weight of the eluted peaks against standards

## fully trypsin activated Cry1Ia toxin (domain or fragment)
[1]
  stoichiometry N: 2

## partially processed Cry1Ia protoxin (~67 kDa intermediate fragment) (domain or fragment)
[2]
  stoichiometry N: 2

## Cry1Ia38 protoxin (natural protein)
[3]
  stoichiometry N: 2
[4]
  stoichiometry N: 2
[5]
  stoichiometry N: 2

## fully MJ activated Cry1Ia toxin (domain or fragment)
[6]
  stoichiometry N: 2
